Reference: US20070065446, “Anti-bambi antibody and diagnostic or remedy for colon cancer and liver cancer” (SCIMEDIA LTD., published 2007)

Key:
[1] = molecular target: T1, TCF4 (TCF7L2) residues 265-496, GST fusion (Homo sapiens, UniProt Q9NQB0-8 Q9NQB0-8:265-496); assay: EMSA; competed by excess unlabeled TBE; details: tags: N-terminal GST (pGEX-5X-1), E. coli DH5alpha; label: radioactive
Description: (§1) Five TCF-4 binding sequences on intron 1 were synthesized (TBE 1-5) and radioactively labeled, and shift assay was used to investigate whether they bound with GST-TCF.

[2] = molecular target: GST (UniProt P08515 P08515:1-218); assay: EMSA; GST control; details: tags: pGEX-5X-1 (Pharmacia), E. coli DH5alpha; label: radioactive
Chain of GST (P08515 whole entry, one chain of several): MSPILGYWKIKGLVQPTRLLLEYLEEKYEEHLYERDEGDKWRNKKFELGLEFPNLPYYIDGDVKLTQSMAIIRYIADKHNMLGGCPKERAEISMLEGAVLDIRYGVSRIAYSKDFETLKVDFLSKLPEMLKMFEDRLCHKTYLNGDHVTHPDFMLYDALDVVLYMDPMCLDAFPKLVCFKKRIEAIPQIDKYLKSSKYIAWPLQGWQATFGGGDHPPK
Description: as §1

[3] = molecular target: T1, TCF4 (TCF7L2) residues 265-496, GST …; assay: competition; mutant unlabeled competitor does not compete in EMSA; details: tags: N-terminal GST (pGEX-5X-1), E. coli DH5alpha
Description: as §1
The oligonucleotide used in preparing the mutant hBAMBI-luciferase construct was used as the mutant competitive molecule.

T1 sequence (Q9NQB0 288-519, one chain of several): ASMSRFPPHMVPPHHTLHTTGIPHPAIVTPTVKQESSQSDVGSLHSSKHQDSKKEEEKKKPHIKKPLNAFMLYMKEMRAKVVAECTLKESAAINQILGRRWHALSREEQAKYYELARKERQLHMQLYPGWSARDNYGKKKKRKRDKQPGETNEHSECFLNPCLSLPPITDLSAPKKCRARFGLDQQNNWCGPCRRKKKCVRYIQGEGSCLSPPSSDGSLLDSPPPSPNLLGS

B1: TBE1 (dsDNA)
DNA 1: GCTGCAGAGGCTTTGTTAGCGGTAG
DNA 2: CTACCGCTAACAAAGCCTCTGCAGC
B1: binds [1]; no binding [2].

B2: TBE2 (dsDNA)
DNA 1: CTCTGTGTCTCTTTGAATGTATCTCTG
DNA 2: CAGAGATACATTCAAAGAGACACAGAG
B2: binds [1]; no binding [2].

B3: TBE3 (dsDNA)
DNA 1: CTCTAAGTGTCTTTGTATCTCTGAATG
DNA 2: CATTCAGAGATACAAAGACACTTAGAG
B3: binds [1]; no binding [2].

B4: TBE4 (dsDNA)
DNA 1: CTGGAAATATCAAAGGCGGGCAGAAC
DNA 2: GTTCTGCCCGCCTTTGATATTTCCAG
B4: binds [1]; no binding [2].

B5: TBE5 (dsDNA)
DNA 1: CTAAAAGTTCATGCCTTTGAATTTGGG
DNA 2: CCCAAATTCAAAGGCATGAACTTTTAG
B5: binds [1]; no binding [2].

B6: TBE1 mutant (dsDNA)
DNA 1: GCTGCAGAGGATTGATTAGCGGTAG
DNA 2: CTACCGCTAATCAATCCTCTGCAGC
B6: no binding [3].

B7: TBE2 mutant (dsDNA)
DNA 1: CTCTGTGTCTAGTTAAATGTATCTCTG
DNA 2: CAGAGATACATTTAACTAGACACAGAG
B7: no binding [3].

B8: TBE3 mutant (dsDNA)
DNA 1: CTCTAAGTGTAGTTATATCTCTGAATG
DNA 2: CATTCAGAGATATAACTACACTTAGAG
B8: no binding [3].

B9: TBE4 mutant (dsDNA)
DNA 1: CTGGAAATATAGAAAGCGGGCAGAAC
DNA 2: GTTCTGCCCGCTTTCTATATTTCCAG
B9: no binding [3].

B10: TBE5 mutant (dsDNA)
DNA 1: CTAAAAGTTCATGCAGTTAAATTTGGG
DNA 2: CCCAAATTTAACTGCATGAACTTTTAG
B10: no binding [3].
